Data set [1] deals with T1, RBM7^1–137 (Z-tagged RBM7, residues 1–137) (human, UniProt Q9Y580 1-137).
T1 construct: source: bacterial cells, in lysate (pull-downs); purified (MST)
T1 sequence (looked up): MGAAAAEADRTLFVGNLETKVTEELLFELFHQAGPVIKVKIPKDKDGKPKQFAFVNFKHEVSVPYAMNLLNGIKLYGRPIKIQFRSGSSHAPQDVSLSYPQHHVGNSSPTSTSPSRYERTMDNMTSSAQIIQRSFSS
As to the kind of experiment: MST; 30 nM ZCCHC8^Pro-(GS)3-eYFP constant, unlabelled RBM7 1-137 titrated from 0.2 nM to 6.0 μM; 50 mM Tris/HCl pH 7.4, 150 mM NaCl, 10 mM MgCl2, 0.05% Tween 20; temperature jump analysis; triplicates. To be noted: both partners purified.

In another data set the target is T2, RBM7 1-98 (RRM) (Homo sapiens, UniProt Q9Y580 1-98).
T2 sequence: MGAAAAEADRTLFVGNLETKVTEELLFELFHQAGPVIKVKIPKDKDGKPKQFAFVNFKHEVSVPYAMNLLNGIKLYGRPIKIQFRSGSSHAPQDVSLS
In words: fluorescence anisotropy; KD value only in inset of the figure, not in material; 20 mM Tris/HCl pH 7.5, 150 mM NaCl, 2 mM DTT, 20 °C, 10 nM RNA, 50 µl. To be noted: protein: recombinant; label: 5'-6-FAM; single strand. (In general: Fluorescence polarisation rises when a labelled molecule tumbles more slowly, as on binding a larger partner.)

Data set [2] concerns the target T3, RBM7 1-98 (RRM);ZCCHC8Pro (proline-rich segment) (Homo sapiens;Homo sapiens, UniProt Q9Y580;Q6NZY4 1-98;285-324, |).
T3 sequence 1: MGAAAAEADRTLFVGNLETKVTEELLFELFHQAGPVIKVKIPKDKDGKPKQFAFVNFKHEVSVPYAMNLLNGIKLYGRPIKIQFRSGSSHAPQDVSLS
T3 sequence 2: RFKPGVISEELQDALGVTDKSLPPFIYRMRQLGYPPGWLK
As to the kind of experiment: fluorescence anisotropy; affinity stated similar to RBM7 alone; KD value only in figure inset; 20 mM Tris/HCl pH 7.5, 150 mM NaCl, 2 mM DTT, 20 °C, 10 nM RNA, 50 µl. To be noted: protein: recombinant;recombinant; tags: ;; copies: 1;1; label: 5'-6-FAM; single strand.

B1: ZCCHC8^Pro-(GS)3-eYFP fusion protein (domain or fragment, human, UniProt Q6NZY4 285-324, looked up)
chain: RFKPGVISEELQDALGVTDKSLPPFIYRMRQLGYPPGWLK
notes: eYFP joined by a Gly-Ser linker serves as the fluorophore of the MST; source: purified; not shown: (GS)3 linker and eYFP, C-terminal, kept
Consider B1, for which, in data set [1], the Kd (usually the concentration at which binding is half-saturated) was 28 nM.

B2: U8 RNA (ssRNA)
RNA: UUUUUUUU
Regarding B2, the binding result (with RBM7 1-98 (RRM); in data set [2]) was “binds” in each case.

Values taken from paper PMC5146272, “Structure of the RBM7–ZCCHC8 core of the NEXT complex reveals connections to splicing factors” (Nature Communications, 2016).
